Data set [1] concerns CsnR (ROK-family transcriptional repressor, SSPG_04872) (Streptomyces lividans TK24). Nature of the data set: competition.
Data set [2] has the same test system. In words: EMSA. The following applies: 10 mM HEPES pH 7.9, 150 mM KCl, 10% glycerol, poly(dI-dC), room temperature. (In EMSA bound probe runs differently from free probe, usually more slowly.)

The source of these data is patent US20130210077.

As a reminder, the IC50 is the midpoint of a concentration-inhibition curve. The low end stands for greater potency in that assay, the high end for weaker potency in that assay. By Kd is commonly meant the constant that tells how readily two partners part at equilibrium.

In turn, “CCTCTTCTGGTAGGAAACTGTCCGATCAGT (double strand) [csnA-MM]” had an IC50 in data set [1] (competitor vs labeled csnA-WT, +2 and +6 mutations, lost most affinity, SE logIC50 0.33) of 105 nM.
As for “CCTCTTCTGGTAGGAAACTGTCCTATCAGT (double strand) [csnA-M1]”, the IC50 in data set [1] (competitor vs labeled csnA-WT, +2 mutation, SE logIC50 0.13) was 52.1 nM.
“CCTCTTCTGGTAGGAAACTTTCCGATCAGT (double strand) [csnA-M2]” came in with a 50% inhibitory concentration (IC50) in data set [1] (competitor vs labeled csnA-WT, +6 mutation, SE logIC50 0.08) of 2.7 nM.
As to “CCTCTTCTGGTAGGAAACTTTCCTATCAGT (double strand) [csnA-WT]”, in data set [2] (SE 0.009 nM), the Kd stood at 0.032 nM. The sequence also had an IC50 in data set [1] (unlabeled competitor vs 0.03 nM labeled csnA-WT, SE logIC50 0.11) of 1.3 nM.
“CTCCAGCCAACAGGAAACTTTCCTAACAGA (double strand) [csnR-WT]” displayed a Kd in data set [2] (SE 0.008 nM) of 0.04 nM.
